One data set concerns the target Cys83 (UniProt position 83, ISPMGCRTGFY). The conditions noted are these: free enzyme (no substrate or ligand bound); metal form not stated; cited from earlier work.
Data set [1] deals with N[C@@H](CCSC[C@@H](O)C(=O)[C@@H](O)CO)C(=O)O. The data set is described as follows: homocysteine release, DTNB assay. It is filed as biochemical, Vibrio campbellii. The settings on record: Co(II) enzyme.
The test system is the same in data set [2]. The data set is described as follows: purified protein. The settings on record: Co(II) enzyme.
Substrate in data set [3]: N[C@@H](CCSC[C@@H](O)C(=O)[C@@H](O)CO)C(=O)O
Put plainly: homocysteine release, DTNB assay. It is filed as biochemical, Bacillus subtilis. The settings on record: Co(II) enzyme.

The values below come from PMC2654206.

On to “S-ribosylhomocysteinase (LuxS), EcLuxS (Escherichia coli)”, for which the pKa (as a rule, the negative logarithm of the acid dissociation constant) in the data set with Cys83 was below 6.
As to “VhLuxS (Co-VhLuxS) (Vibrio campbellii ATCC BAA-1116; H11Q)”, in data set [1], the Km – broadly, the substrate concentration at which the rate is half of its maximum – was found to be 520 ± 60 µM; the kcat (in general, the maximal rate divided by the concentration of active sites) was found to be 0.024 ± 0.002 s⁻¹; the kcat/Km (commonly the second-order rate constant that governs catalysis at low substrate concentration) was found to be 47 M⁻¹ s⁻¹.
The matching figures for “VhLuxS (Co-VhLuxS) (Vibrio campbellii ATCC BAA-1116; C83A)”: 700 ± 120 µM, 0.022 ± 0.002 s⁻¹ and 31 M⁻¹ s⁻¹.
The matching figures for “VhLuxS (Co-VhLuxS) (Vibrio campbellii ATCC BAA-1116; R39M)”: 150 ± 20 µM, 0.016 ± 0.001 s⁻¹ and 110 M⁻¹ s⁻¹.
For “VhLuxS (Co-VhLuxS) (Vibrio campbellii ATCC BAA-1116; S6A)”, in that order: 40 ± 3 µM, 0.14 ± 0.01 s⁻¹ and 3400 M⁻¹ s⁻¹.
On to “VhLuxS (Co-VhLuxS) (Vibrio campbellii ATCC BAA-1116)”, for which, in data set [2], the Km is 27 ± 2 µM, the kcat came out at 0.64 ± 0.02 s⁻¹ and the kcat/Km worked out at 24000 M⁻¹ s⁻¹.
In the case of “VhLuxS (Co-VhLuxS) (Vibrio campbellii ATCC BAA-1116; E57A)”, in data set [1], the Km was 98 ± 13 µM, the kcat was 0.012 ± 0.001 s⁻¹ and the kcat/Km came out at 120 M⁻¹ s⁻¹.
On to “VhLuxS (Co-VhLuxS) (Vibrio campbellii ATCC BAA-1116; E57D)”, for which, in data set [1], the Km is 730 ± 120 µM, the turnover number (kcat) was 0.026 ± 0.003 s⁻¹ and the kcat/Km worked out at 36 M⁻¹ s⁻¹.

B1: BsLuxS (Co-BsLuxS) (Bacillus subtilis subsp. subtilis str. 168) (protein)
chain: MPSVESFELDHNAVVAPYVRHCGVHKVGTDGVVNKFDIRFCQPNKQAMKPDTIHTLEHLLAFTIRSHAEKYDHFDIIDISPMGCQTGYYLVVSGEPTSAEIVDLLEDTMKEAVEITEIPAANEKQCGQAKLHDLEGAKRLMRFWLSQDKEELLKVFG
As for B1, in data set [3], the Km amounted to 3.6 ± 0.1 µM, the kcat was found to be 0.038 ± 0.001 s⁻¹ and the kcat/Km was determined as 11000 M⁻¹ s⁻¹.
